# In article PMC11672753 (Plant Biotechnology Journal, 2024):
# Target: T1, SARS-CoV-2 RBD (Wuhan), hexahistidine-tagged (SARS-CoV-2, UniProt P0DTC2)
# T1 construct: also called recombinant RBD protein
# Assay: BLI
# Conditions: both partners purified
row,Binder,binding result
1,"M15 (plant-produced COVA2-15, conventional IgG1) (antibody, V domains shown) VH: QVQLLESGGGLVQPGGSLRLSCAASGFTFSSYAMSWVRQAPGKGLEWASAISGSGGSTYYADSVEGRFTISRDNSKNTLYLQMNSLRAEDTAVYYCAKDTGYCGDDCYIKLIRGGPDYWGQGTLVTVSS VL: DIVMTQSPLSLPVTLGQPASISCRSSQSLVYSDGNTFLNWFQQRPGQSPRRLIYQVSNRDSGVPDRFSGSGSGTDFTLKISRVEAEDVGVYYCMQGTHWPRTFGQGTKLEIK",binds
2,"S15 (plant-produced COVA2-15, single-chain (sc)Fv-Fc format) (Fc fusion, human) VH: QVQLLESGGGLVQPGGSLRLSCAASGFTFSSYAMSWVRQAPGKGLEWASAISGSGGSTYYADSVEGRFTISRDNSKNTLYLQMNSLRAEDTAVYYCAKDTGYCGDDCYIKLIRGGPDYWGQGTLVTVSS VL: DIVMTQSPLSLPVTLGQPASISCRSSQSLVYSDGNTFLNWFQQRPGQSPRRLIYQVSNRDSGVPDRFSGSGSGTDFTLKISRVEAEDVGVYYCMQGTHWPRTFGQGTKLEIK",binds
